This is an account of results in the nanobody polyreactivity screen of Harvey et al. (2022).

The nature of the data set: yeast display, Sf9 membrane polyspecificity reagent, FACS + sequencing; frameworks hold sequencing errors. The method in brief: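 Synthetic nanobody libraries on Saccharomyces cerevisiae BJ5465 were galactose-induced for 36–48 hours, stained 1 hour at 4 °C with 10% biotinylated, detergent-solubilized Sf9 membrane reagent and enriched on streptavidin microbeads. FACS then separated cells into low and high (top ~1%) gates by anti-HA (expression) and streptavidin (reagent binding) fluorescence. Genes were colony-PCR amplified, MiSeq 2 × 250 sequenced and CDR-length filtered. A clone's polyreactivity label is that of its gate of origin.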
Take “QVQLVESAGGLVQAGGSLSLSCAASGSIFIWYAMGWDRQAPGKERELVAAIRSGGSTYYADSVKGRFTISRDNAKNTVYLQMNSLKPEYTAVYYCAKVLTWRGYRYNYWGQGTQVTVSS”: the “polyreactivity (PSR sort gate)” value is reported as “low polyreactivity”.
Consider “QVQLVESAGGLVQAGGSLSLSCAASGSILSRYAMGWYRQAPGKERELVAAINWSGSSTYYADSVKGRFTISRDNAKNTVYLQMNSLKPEDTAVYYCAKLYVTPRRLPYDYWGQGTQVPVSS”, for which the “polyreactivity (PSR sort gate)” value is on record as “high polyreactivity”.
The entry for “QVQLVESAGGLVQAGGSLSLSCAASGSMFNKYAMGWYRQAPGKERELVAAISVSGTRTYYADSVKGRFTISRDNAKNTVYLQMNSLKPEDTAVYYCATKFFRTAYEYWGQGTQVTVSS” is “high polyreactivity”.
For “QVQLVESAGGLVQAGGSLSLSCDASGNTFLGYAMGWYRQAPGKERELVAAISKRGGSTYYADSVKGRFTISRDNAKNTVYLQMNSLQPEDTAVYYCNAVPPRDNGSWGQGTQVTVSS”, the “polyreactivity (PSR sort gate)” value was “high polyreactivity”.
On to “QVQLVESAGGLVQAGGSVRLSCAASGRIFGSYAMGWYRQAAGKERELVAAINWRGGSTFYADSVKGRFTISRDNAKNTVYLQMNSLKPEDTAVYYSARRGYLQSGDYWGHGTQVTVSS”, for which the “polyreactivity (PSR sort gate)” value is on record as “low polyreactivity”.
Take “QVQLVESAGGLVQAGGTLRLSCDASGFIIYYYAMGWYRQAPGKERELVAAISRGGSTYYADSVKGRFTISRDNAKNTGYLQMISLKPEDTAVYYCASEDFPVYSYYYWGQGSQVTVSS”: the “polyreactivity (PSR sort gate)” value is “high polyreactivity”.
With “QVQLVESAGGLVQEGGSLRLSCAASVIFWANVMGWYRQAPGKEWELVDAITSGGSTNYADSVKGRFTISRDNAKNTVYLQMNSLKPEDTAVYYCIKPWYSYRYGGVGYGYWGQGTQVTVSS” the entry was “low polyreactivity”; with “QVQLVESAGRLVQAGGSLRLSCAASGSTYSSNAMGGYRQEPGKERELVAAITTSGGSTYYADSVKGRFTISRDNAKNTVYLQMNSLIPADTAVYYCAADLVHAYQWSIFLYGYWGLGTQVTVSS”, “low polyreactivity”; with “QVQLVESARGIVQAGGSLRLSSAASGFIFYSSAMGGYRQAPGYERELVAGITSGGITSYADSVKGRFTISRDNAKNTVYLQMNSLKPEYTAVYYCAAVVVYQNYNYYYWGQGTQVTVSS”, “high polyreactivity”.
Consider “QVQLVESAVCLVQAGVSLRLSCAASGIIFDYNAMGWYRQAPGKDREVVAAITSTDNTNYADSVKGRFTISRDNAKNTVYLQMNSLKPEDTAVYYCNTDYWLSVVYAMDYWGQGTQVTVSS”, for which the “polyreactivity (PSR sort gate)” value was “low polyreactivity”.
For “QVQLVESCGGIDQAGGSLRLTCAATGRIFNSYPMGWYRQAPGKERELVAAISRNGGITYYADSVKARFTISRDNAKITVYLQMNILKQEDTAVYYCNADSSRRLYSSEYWGEGTQVTVSS”, the “polyreactivity (PSR sort gate)” value was “high polyreactivity”.
On to “QVQLVESCGGLVHAGGSLRLSCAATGFTIAENVKGWYRQSPGKERELVAAIDYSDGITYYADSVKGRFTISRDNAKNTVYLQMNSLKPEDTAVYYCATQYLIQTKDYSWGQGTQVTVSS”, for which the “polyreactivity (PSR sort gate)” value is on record as “high polyreactivity”.
Turning to “QVQLVESCGGLVQAGCSLRLSCAASGSIVAWYTMGWYRQAPGKERELVAGITASGGSTYYADSVKGRFTISRDNAKNTVYLQMNILKPEDTAVYYCAATNPFRYRRGGYWGQGTQVTVSS”, the “polyreactivity (PSR sort gate)” value is listed as “high polyreactivity”.
For “QVQLVESCGGLVQAGGSIRLRCAATGSIIYVNPMGWYRQAPWKEREMVAAITGGASTNYADSVKGRFTISRDNAKNTVYLQMNLLKPEDTAVYYCAVDPVGHATRVWTYQYDYWGQGNQVTVSS”, the “polyreactivity (PSR sort gate)” value is given as “low polyreactivity”.
Turning to “QVQLVESCGGLVQAGGSLRLSCAASGFIFQPYAMGWYRQAPGTERELVAAITSRGGRTYYADSVKGRFTISRDNAKNTVYLQMNSLKPEDTAVYSCNAVIYACEYYYWGQGTQVTVSS”, the “polyreactivity (PSR sort gate)” value was “low polyreactivity”.
For the sequence “QVQLVESCGGLVQAGGSLRLSCAASGGIFGYYAMGWYRQAPGKEREFVAAITLSGGRSYYADSVKGRFTISRDNAKNTVYLQMNSLKPEDTAVYYCNAYPYYLVRNMDSWGQGTQVTVSS”, the “polyreactivity (PSR sort gate)” value is “high polyreactivity”.
“QVQLVESCGGLVQAGGSLRLSCAASGRTFRDNAMGWYRQAPGKERELVAAIDIDSSTYYADSVEGRFTISRDNAKNTVYLQMNSLKPEDTAVYYCAAESYHDGKGFPDYEYWGQGTQVTVSS”: the “polyreactivity (PSR sort gate)” value is recorded as “low polyreactivity”.
For the sequence “QVQLVESCGGLVQAGGSLRLSCAASGSIFPPYAMGWYRQAPGKERELVATITIRGGSTYYADSVKGRFTISRDNAKNTVYLQMNSLKPEDTAVYYCAADYTKYYRRYYYWGQGTQVTVSS”, the “polyreactivity (PSR sort gate)” value is on record as “high polyreactivity”.
The entry for “QVQLVESCGGLVQAGGSLRLSCAASGSIFYGNVMGWYRQAPGKERELVAAISSSGGSTYYADSVKGRFTISRDNEKNTVYLQMNRLKPEDSAVYYCAAYWWSRVVRGSRYDYWGQGTHVTVSS” is “low polyreactivity”; for “QVQLVESCGGLVQAGGSLRLSCAASGSTFAVNVMGWYRQAPGKERELDATITYRDGRTYYADSVKGRFTISRDNAKNTVYVQMNSLKPEVTALYYCAADWYTTYDYWGQGTQVTVSS” it is “low polyreactivity”; for “QVQLVESCGGLVQAGGSLRLSCAASGSTFDGYAMGWYRQAPVKERELVAAISASGGSTYYADSVKGRFTISRDNAKNTVYLQMNSLKPEDTAVYYCNSEPFDLWAFYYCYVYGYYHWGQGTQVTVSS” it is “high polyreactivity”.
For “QVQLVESCGGLVQAGGSLRLSCAASGSTFTIYAMGWYRQAPGKERELVAVISSSGGSTYYADSVKGRFTISRDNAKNTVYLQMNSLKPEDTAVYYCAADTRYFGGYLTLYYWGQGTQVTVSS”, the “polyreactivity (PSR sort gate)” value is given as “low polyreactivity”.
As to “QVQLVESCGGLVQAGGSLRLSCAASGSTFTVNAMGGYRQAPGKERELVAAINWSGGSTYYADSVKGRFTISRDNAKNTVYFQMNSLKPEDTAVYYCNKDREPYGYWSFDYWGQGSQVTVSS”, the “polyreactivity (PSR sort gate)” value is “low polyreactivity”.
For “QVQLVESCGGLVQAGGSLRLSCAASGSTFVHNAMGWNRQAPGKESELVAAITSRTGITYYADSLKGRFTISRDNAKNTFYLEMNSLKPEDTSVFYCAKRHVRTHRLQFDYWGQGTQVTVSS”, the “polyreactivity (PSR sort gate)” value is listed as “high polyreactivity”.
Take “QVQLVESCGGLVQAGGSLRLSCADYGRTFGKYAMGWYRQSPGKERELVAAITYRGGTTYYEDSVKGRFTISRDNAKNTLYLQMNSLKPEDTAVYYCATAPGRRYDWGQGTQVTVSS”: the “polyreactivity (PSR sort gate)” value is reported as “high polyreactivity”.
Regarding “QVQLVESCGGLVQAGGSLRLSCASSGRTIDSKAMGWYRQAPGKERELVAAISWSGGSTYYADSVKGRFTISRDNAKNTVYLQMNSLKPEDTAVYYCNRLGRHAPATRYGYWGQGTQVTVSS”, the “polyreactivity (PSR sort gate)” value is given as “high polyreactivity”.
The entry for “QVQLVESCGGLVQTGGSLRLICAASRSNFDYYAMGWYRQAPWKETELVATNSYDFSTSYADSVKVLFTISRDNAKNTVFLQMKSLKPVDTAVYYCATDAGLYLEDAYEGPEQEFDYWGQGTQVTVSS” is “low polyreactivity”; for “QVQLVESFGGLVQAGGSLRLICAGSGLTCYVYAMGWSRPAPGKERELVAAISQRGGSTYYADSVKGRFTISRDKAKNTVYLQMNSLKPEDTAVYYCAKYTVQYAFSHYDYWGQGTQVTVSS” it is “high polyreactivity”.
The entry for “QVQLVESGAALVQAGGSLRLSCAASASTYVSYAMGWSRQAPGKEREFVAAITWRGDSTYYADSVKGRFTISRDNAKNTVYFQMNSLKPEDTAVDYCAADGRSWRYYSPYYYWGQGTQVTVSS” is “low polyreactivity”; for “QVQLVESGACLVQAGGSLRLSCAASGSIFGFYAMGWYRQAPGQERELVAGISYGDSSTYYADSVKGRFTISRDNAKNTVYLQMNSLKPEDTAVYYCAAGHRQKYNWGRYDYWGQGTQVTVSS” it is “low polyreactivity”; for “QVQLVESGAGFVQAGGSLRLTCAASGRNLSWYAMGWYRQAPGKEREYVAAITSSGASTYYADSVKGRFTISRDNAKNTVYLQMNSLKPEDTAVYYSNAAWRRVWFNYWGQGTQVTVSS” it is “high polyreactivity”.
On to “QVQLVESGAGIVQAGGSLRLSCAASGLTFANYVMGGYRQAPGKERELVAAISRSGGSTYYADSVKGRFTISRDNAKKTVNLQMNCLKPEDTAVYYCAAAAWDPKGSRYDSWGQGTQVSVSS”, for which the “polyreactivity (PSR sort gate)” value is reported as “low polyreactivity”.
As for “QVQLVESGAGIVQAGGSLRLSCAASGSTFYSYTMGWYRQAPGKERELVAAITSTGGRTYYADSVKGRFTISRDNAKITVYLQMNSLKPEDTAVYYCRRPYLYGMYYWGQGTQVTVSS”, the “polyreactivity (PSR sort gate)” value was “high polyreactivity”.
The entry for “QVQLVESGAGLDQAGCSLRISCAASGRIFWFYTMGWYRQAPWKERELVAAISTSGGSTYYADSVKGRFTISRDNEKNTVYLQMNSLKPDDTAVYYCAAQNGYYPQHDYWGQGTQVTVSS” is “high polyreactivity”.
Turning to “QVQLVESGAGLDQAGGSLRLSSAASGNTFQYYAMGSYRQAAGKERELVASISYRGGRTYYADSVKGRFTISRDNAKYTVYLQMNSLKPADTAVYYCAKSKYTNVLYNYWGQGTQVTVSS”, the “polyreactivity (PSR sort gate)” value is on record as “high polyreactivity”.
Turning to “QVQLVESGAGLFQAGGSLRLSCAASGFTFNYYAMGGYIHAPGKERELVAAISRRGGSTYYADSVKGRFTISRDNAKNNVYLQMKSLKPEDTAVYYCNAASLKFTSPVRFGYWGQGTQVTVSS”, the “polyreactivity (PSR sort gate)” value is “high polyreactivity”.
As for “QVQLVESGAGLFQAGGSLRLSCAASGFTFWWYAMGWYRQAPGKQRELVASISSGGSTNYADSVKGRFTISRDNANNTVYLQMNSLKQVDTAVFYCARRMLYSERYSARWQYVYWGQGTQVNVSS”, the “polyreactivity (PSR sort gate)” value is “high polyreactivity”.
Turning to “QVQLVESGAGLFQAGGSLRLSCAASGSTFVSYAMGWYRQAPGKEREFVAAITWSGGSTYYADSVKGRFTISRDNAKNTVYLQMNSLKPEDTAVYYCARPYRGSPRYYYWGQGTQVTVSS”, the “polyreactivity (PSR sort gate)” value is “high polyreactivity”.
With “QVQLVESGAGLLQAGGSLRISCAASGLTFKIIAMGWYRQAPGKERELVAAISSGTSTNYADSVKGRFTISRDNAKITVYLQMNSLKPEDTAVYYCAARGFWGVAYRYYYWGQGTQVTLSS”, the “polyreactivity (PSR sort gate)” value was “high polyreactivity”.
With “QVQLVESGAGLVQAGGILRLSCAASGRTFKVYAMGWDRQAPGKERELVAAISDRGGSTYDADSVKGRFTISRDYAKNTVYLQMNSLKPVDTAVYYCSAEYARSTWRAFPELDYWGQGTQVTVSS” the entry was “low polyreactivity”; with “QVQLVESGAGLVQAGGRLRLSCAASGRIFDGYAMGWYRQAPGKERELVAAITASGGSTYYADSVKGRFTISRDNAKITVYLQMNSLKPEDTAVYYCAVDYSYWVEYWGQGTQVTVSS”, “high polyreactivity”.
